This experiment addresses T1, CDH17蛋白细胞外段1~3结构域 (recombinant CDH17 extracellular domains 1-3) (human, UniProt Q12864 23-340, limits assumed).
T1 construct: domain: 细胞外段1~3 结构域; purified on Ni resin, so probably His-tagged, but the tag is not described; also called CDH17 1-3D; CDH17 1~3结构域蛋白
T1 sequence (looked up): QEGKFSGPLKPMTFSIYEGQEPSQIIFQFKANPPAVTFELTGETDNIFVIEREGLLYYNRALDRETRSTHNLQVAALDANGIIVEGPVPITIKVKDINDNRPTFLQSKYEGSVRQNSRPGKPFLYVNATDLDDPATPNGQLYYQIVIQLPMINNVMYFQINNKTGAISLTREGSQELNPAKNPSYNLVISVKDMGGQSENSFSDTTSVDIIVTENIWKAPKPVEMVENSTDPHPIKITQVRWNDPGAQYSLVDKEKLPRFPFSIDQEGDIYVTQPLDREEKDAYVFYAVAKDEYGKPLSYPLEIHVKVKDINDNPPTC
In words: SPR (Biacore), purified antigen on the chip, nanobody as analyte (Fig. 5E). Background: Surface plasmon resonance follows binding to a sensor surface in real time, without labels.

B1: Nb193纳米抗体 (Nb193 nanobody) (VHH)
VHH: AVQLVESGGGLVQAGGSLRLSCVASGSTLERYAVYWYRQPPGKERELVAGIMRGGNINYADSVKGRFTISKDYAKNTLILQMNSLKPEDTAVYYCNAGGSRFGYWGQGTQVTVSS
notes: From a naive alpaca phage display nanobody library; Expressed in E. coli with HA tag and His tag, about 15 kDa; the tag piece is put last only for want of better; not shown: HA tag and His tag fused to the nanobody (pET-14B, E. coli)
With B1, the Kd (in general, the equilibrium constant for the complex coming apart) turned out to be 17.6 nM.

The values are drawn from patent CN113999308A (SHENZHEN PEOPLES HOSPITAL, dated 2022).
